Literature values as cited in paper PMC10673186.

Target: SIRPα (Homo sapiens) (UniProt P78324)
UniProt P78324, sequence (P78324 31-373): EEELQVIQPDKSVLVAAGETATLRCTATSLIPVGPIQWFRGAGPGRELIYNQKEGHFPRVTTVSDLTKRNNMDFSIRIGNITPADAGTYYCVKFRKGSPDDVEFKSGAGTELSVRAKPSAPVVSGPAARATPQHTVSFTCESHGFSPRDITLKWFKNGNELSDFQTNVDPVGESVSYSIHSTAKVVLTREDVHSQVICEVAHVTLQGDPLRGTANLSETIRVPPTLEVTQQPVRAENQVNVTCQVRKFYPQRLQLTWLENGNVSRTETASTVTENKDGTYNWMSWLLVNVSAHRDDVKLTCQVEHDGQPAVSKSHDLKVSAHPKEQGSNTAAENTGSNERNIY

- Kd: 1000 nM
Substance: CD47 (from UniProt Q08722)
